Measured values: patent US20230295310A1 (ABCELLERA BIOLOGICS, published 2023)

Target: human EGFR, C-terminal eGFP-tagged, on CHO-K1 cells (human, UniProt P00533 25-1210)
Test: cell-based or functional assay

B1: GOMP001_bsAb_042 (bispecific antibody, human IgG1, kappa, L234A L235A)
heavy 1: EVQLVESGGGLVKTGGSLRLSCVASGFSFKKAWMNWVRYAPGKGLEWVGRIKRNTDGGPADYAARVKGRFTLSRDDSKKTLYLQMNSLKTEDTAVYYCTTLDSSSWYVGYYYMDVWGRGTTVTVSSASTKGPSVFPLAPSSKSTSGGTAALGCLVKDYFPEPVTVSWNSGALTSGVHTFPAVLQSSGLYSLSSVVTVPSSSLGTQTYICNVNHKPSNTKVDKKVEPKSCDKTHTCPPCPAPEAAGGPSVFLFPPKPKDTLMISRTPEVTCVVVDVSHEDPEVKFNWYVDGVEVHNAKTKPREEQYNSTYRVVSVLTVLHQDWLNGKEYKCKVSNKALPAPIEKTISKAKGQPRRPRVYTLPPSREEMTKNQVSLVCLVKGFYPSDIAVEWESNGQPENNYKTTPPVLDSDGSFFLYSVLTVDKSRWQQGNVFSCSVMHEALHNHYTQKSLSLSPG
light 1: DIQMTQSPSSVSASVGDRVIITCRASQDINNWLAWYLRRPGDAPKLLIYAASSLQSGVPSRFSGSGSGTDFTLTIGSLQPEDFATYYCQQAHSLPITFGQGTRLEIQRTVAAPSVFIFPPSDEQLKSGTASVVCLLNNFYPREAKVQWKVDNALQSGNSQESVTEQDSKDSTYSLSSTLTLSKADYEKHKVYACEVTHQGLSSPVTKSFNRGEC
heavy 2: QVQLVQSGAEVKKPGASVKVSCKASGYTFTSHWMHWVRYAPGQGLEWIGEFNPSNGRTNYNEKFKSKATMTVDTSTNTAYMELSSLRSEDTAVYYCASRDYDYDGRYFDYWGRGTLVTVSSASTKGPSVFPLAPSSKSTSGGTAALGCLVKDYFPEPVTVSWNSGALTSGVHTFPAVLQSSGLYSLSSVVTVPSSSLGTQTYICNVNHKPSNTKVDKKVEPKSCDKTHTCPPCPAPEAAGGPSVFLFPPKPKDTLMISRTPEVTCVVVDVSHEDPEVKFNWYVDGVEVHNAKTKPREEQYNSTYRVVSVLTVLHQDWLNGKEYKCKVSNKALPAPIEKTISKAKGQPRRPRVYTLPPSREEMTKNQVSLVCLVKGFYPSDIAVEWESNGQPENNYKTTPPVLDSDGSFFLYSVLTVDKSRWQQGNVFSCSVMHEALHNHYTQKSLSLSPG
light 2: DIQMTQSPSSLSASVGDRVTITCSASSSVTYMYWYQRKPGDAPKLLIYDTSNLASGVPSRFSGSGSGTDYTFTISSLQPEDIATYYCQQWSSHIFTFGQGTKVEIKRTVAAPSVFIFPPSDEQLKSGTASVVCLLNNFYPREAKVQWKVDNALQSGNSQESVTEQDSKDSTYSLSSTLTLSKADYEKHKVYACEVTHQGLSSPVTKSFNRGEC
EC50 CHO-K1 EGFR Low (nM); T cell activation bioassay, luciferase: 0.0439 nM | EC50 CHO-K1 EGFR Med (nM); T cell activation bioassay, luciferase: 0.00223 nM

B2: GOMP001_bsAb_045 (bispecific antibody, human IgG1, kappa, L234A L235A)
heavy 1: QVQLVQSGAEVKKPGASVKVSCKASGYTFTSHWMHWVRKAPGQGLEWIGEFNPSNGRTNYNEEFKSKATMTVDTSTNTAYMELSSLRSEDTAVYYCASRDYDYDGRYFDYWGQGTLVTVSSASTKGPSVFPLAPSSKSTSGGTAALGCLVADYFPEPVTVSWNSGALTSGVHTFPAVLQSSGLYSLSSVVTVPSSSLGTQTYICNVNHKPSNTKVDEKVEPKSCDKTHTCPPCPAPEAAGGPSVFLFPPKPKDTLMISRTPEVTCVVVDVSHEDPEVKFNWYVDGVEVHNAKTKPREEQYNSTYRVVSVLTVLHQDWLNGKEYKCKVSNKALPAPIEKTISKAKGQPREPQVYTLPPSREEMTDNQVSLTCLVKGFYPSDIAVEWESNGQPENNYKTTPPVLMSDGSFFLASKLTVDKSRWQQGNVFSCSVMHEALHNHYTQKSLSLSPG
light 1: RIQMTQSPSSLSASVGDRVTITCSASSSVTYMYWYQDKPGKAPKLLIYDTSNLASGVPSRFSGSGSGTDYTFTISSLQPEDIATYYCQQWSSHIFTFGQGTKVEIKRTVAAPSVFIFPPSDKQLKSGTARVVCLLNNFYPREAKVQWKVDNALQSGNSQESVTEQDSKDSTYSLSSTLTLSKADYEKHKVYACEVTHQGLSSPVTKSFNRGEC
heavy 2: QVQLVQSGAEVKKPGASVKVSCKASGYTFTSHWMHWVRKAPGQGLEWIGEFNPSNGRTNYNEEFKSKATMTVDTSTNTAYMELSSLRSEDTAVYYCASRDYDYDGRYFDYWGQGTLVTVSSASTKGPSVFPLAPSSKSTSGGTAALGCLVADYFPEPVTVSWNSGALTSGVHTFPAVLQSSGLYSLSSVVTVPSSSLGTQTYICNVNHKPSNTKVDEKVEPKSCDKTHTCPPCPAPEAAGGPSVFLFPPKPKDTLMISRTPEVTCVVVDVSHEDPEVKFNWYVDGVEVHNAKTKPREEQYNSTYRVVSVLTVLHQDWLNGKEYKCKVSNKALPAPIEKTISKAKGQPREPQVYTLPPSREEMTDNQVSLTCLVKGFYPSDIAVEWESNGQPENNYKTTPPVLMSDGSFFLASKLTVDKSRWQQGNVFSCSVMHEALHNHYTQKSLSLSPG
light 2: not shown
EC50 CHO-K1 EGFR Low (nM); T cell activation bioassay, luciferase: 0.071 nM | EC50 CHO-K1 EGFR Med (nM); T cell activation bioassay, luciferase: 0.00792 nM

B3: GOMP001_bsAb_044 (bispecific antibody, human IgG1, kappa, L234A L235A)
heavy 1: EVQLVESGGGLVKTGGSLRLSCVASGFSFKKAWMNWVRYAPGKGLEWVGRIKRNTDGGTADYAARVKGRFTLSRDDSKKTLFLQMNSLKTEDTAVYYCTTLDSSSYYVGYYYMDVWGRGTTVTVSSASTKGPSVFPLAPSSKSTSGGTAALGCLVKDYFPEPVTVSWNSGALTSGVHTFPAVLQSSGLYSLSSVVTVPSSSLGTQTYICNVNHKPSNTKVDKKVEPKSCDKTHTCPPCPAPEAAGGPSVFLFPPKPKDTLMISRTPEVTCVVVDVSHEDPEVKFNWYVDGVEVHNAKTKPREEQYNSTYRVVSVLTVLHQDWLNGKEYKCKVSNKALPAPIEKTISKAKGQPRRPRVYTLPPSREEMTKNQVSLVCLVKGFYPSDIAVEWESNGQPENNYKTTPPVLDSDGSFFLYSVLTVDKSRWQQGNVFSCSVMHEALHNHYTQKSLSLSPG
light 1: DIQMTQSPSSVSASVGDRVTITCRASQDINNWLAWYQRKPGDAPKLLIYTASSLQSGVPSRFSGSGSGTDFTLTIGSLQPEDFATYYCQQAHSLPITFGQGTRLEIKRTVAAPSVFIFPPSDEQLKSGTASVVCLLNNFYPREAKVQWKVDNALQSGNSQESVTEQDSKDSTYSLSSTLTLSKADYEKHKVYACEVTHQGLSSPVTKSFNRGEC
heavy 2: QVQLVQSGAEVKKPGASVKVSCKASGYTFTSHWMHWVRYAPGQGLEWIGEFNPSNGRTNYNEKFKSKATMTVDTSTNTAYMELSSLRSEDTAVYYCASRDYDYDGRYFDYWGRGTLVTVSSASTKGPSVFPLAPSSKSTSGGTAALGCLVKDYFPEPVTVSWNSGALTSGVHTFPAVLQSSGLYSLSSVVTVPSSSLGTQTYICNVNHKPSNTKVDKKVEPKSCDKTHTCPPCPAPEAAGGPSVFLFPPKPKDTLMISRTPEVTCVVVDVSHEDPEVKFNWYVDGVEVHNAKTKPREEQYNSTYRVVSVLTVLHQDWLNGKEYKCKVSNKALPAPIEKTISKAKGQPRRPRVYTLPPSREEMTKNQVSLVCLVKGFYPSDIAVEWESNGQPENNYKTTPPVLDSDGSFFLYSVLTVDKSRWQQGNVFSCSVMHEALHNHYTQKSLSLSPG
light 2: DIQMTQSPSSLSASVGDRVTITCSASSSVTYMYWYQRKPGDAPKLLIYDTSNLASGVPSRFSGSGSGTDYTFTISSLQPEDIATYYCQQWSSHIFTFGQGTKVEIKRTVAAPSVFIFPPSDEQLKSGTASVVCLLNNFYPREAKVQWKVDNALQSGNSQESVTEQDSKDSTYSLSSTLTLSKADYEKHKVYACEVTHQGLSSPVTKSFNRGEC
EC50 CHO-K1 EGFR Low (nM); T cell activation bioassay, luciferase: 0.0136 nM | EC50 CHO-K1 EGFR Med (nM); T cell activation bioassay, luciferase: 0.0041 nM

B4: GOMP001_bsAb_043 (bispecific antibody, human IgG1, kappa, L234A L235A)
heavy 1: QVQLVQSGAEVKKPGASVKVSCKASGYTFTSHWMHWVRKAPGQGLEWIGEFNPSNGRTNYNEEFKSKATMTVDTSTNTAYMELSSLRSEDTAVYYCASRDYDYDGRYFDYWGQGTLVTVSSASTKGPSVFPLAPSSKSTSGGTAALGCLVADYFPEPVTVSWNSGALTSGVHTFPAVLQSSGLYSLSSVVTVPSSSLGTQTYICNVNHKPSNTKVDEKVEPKSCDKTHTCPPCPAPEAAGGPSVFLFPPKPKDTLMISRTPEVTCVVVDVSHEDPEVKFNWYVDGVEVHNAKTKPREEQYNSTYRVVSVLTVLHQDWLNGKEYKCKVSNKALPAPIEKTISKAKGQPREPQVYTLPPSREEMTDNQVSLTCLVKGFYPSDIAVEWESNGQPENNYKTTPPVLMSDGSFFLASKLTVDKSRWQQGNVFSCSVMHEALHNHYTQKSLSLSPG
light 1: RIQMTQSPSSLSASVGDRVTITCSASSSVTYMYWYQDKPGKAPKLLIYDTSNLASGVPSRFSGSGSGTDYTFTISSLQPEDIATYYCQQWSSHIFTFGQGTKVEIKRTVAAPSVFIFPPSDKQLKSGTARVVCLLNNFYPREAKVQWKVDNALQSGNSQESVTEQDSKDSTYSLSSTLTLSKADYEKHKVYACEVTHQGLSSPVTKSFNRGEC
heavy 2: EVQLVESGGGLVKTGGSLRLSCVASGFSFKKAWMNWVRYAPGKGLEWVGRIKRNTDGGTADYAARVKGRFTLSRDDSKKTLFLQMNSLKTEDTAVYYCTTLDSSSYYVGYYYMDVWGRGTTVTVSSASTKGPSVFPLAPSSKSTSGGTAALGCLVKDYFPEPVTVSWNSGALTSGVHTFPAVLQSSGLYSLSSVVTVPSSSLGTQTYICNVNHKPSNTKVDKKVEPKSCDKTHTCPPCPAPEAAGGPSVFLFPPKPKDTLMISRTPEVTCVVVDVSHEDPEVKFNWYVDGVEVHNAKTKPREEQYNSTYRVVSVLTVLHQDWLNGKEYKCKVSNKALPAPIEKTISKAKGQPRRPRVYTLPPSREEMTKNQVSLVCLVKGFYPSDIAVEWESNGQPENNYKTTPPVLDSDGSFFLYSVLTVDKSRWQQGNVFSCSVMHEALHNHYTQKSLSLSPG
light 2: DIQMTQSPSSVSASVGDRVTITCRASQDINNWLAWYQRKPGDAPKLLIYTASSLQSGVPSRFSGSGSGTDFTLTIGSLQPEDFATYYCQQAHSLPITFGQGTRLEIKRTVAAPSVFIFPPSDEQLKSGTASVVCLLNNFYPREAKVQWKVDNALQSGNSQESVTEQDSKDSTYSLSSTLTLSKADYEKHKVYACEVTHQGLSSPVTKSFNRGEC
EC50 CHO-K1 EGFR Low (nM); T cell activation bioassay, luciferase: 0.0706 nM | EC50 CHO-K1 EGFR Med (nM); T cell activation bioassay, luciferase: 0.0122 nM
